The data set relates to diabetic rats. As to the kind of experiment: Insulin delivery through catheter and implanted pocket in diabetic rats, plasmatic glycaemia. Format: in vivo, rat. As for the experimental part:
Rapid Insulin was injected through a catheter linked to a pocket as disclosed in the examples of WO 2015/086550 (three layer, including one of non-woven polymer).
The pocket was implanted in the intraperitoneal cavity of rats.

Turning to insulin, under “inferred from glycaemia kinetics, pocket implanted intraperitoneally”, the “diffusion of insulin out of the device” value is “instant diffusion”. Besides, the plasmatic glycaemia result (insulin injected through catheter linked to pocket implanted in the intraperitoneal cavity (FIG. 2, circles)) is listed as “rapid decrease of plasmatic glycaemia”.

The values above are taken from patent publication US20190255310A1, “KIT FOR IN SITU DELIVERY OF A COMPOUND OF INTEREST” (Defymed, priority 2016, published 2019).
